The labels stand for the following.
B1: H2-Kb / Ed8 (parent complex)
chain 1: AQSVTQPDARVTVSEGASLQLRCKYSYFGTPYLFWYVQYPRQGLQLLLKYYPGDPVVQGVNGFEAEFSKSNSSFHLRKASVHWSDWAVYFCAVSPGSGGKLTLGAGTRLQVNL
chain 2: DSGVVQSPRHIIKEKGGRSVLTCIPISGHSNVVWYQQTLGKELKFLIQHYEKVERDKGFLPSRFSVQQFDDYHSEMNMSALELEDSAMYFCASSPRASNYTFGSGTRLLVI
chain 3: not shown
chain 4: IQKTPQIQVYSRHPPENGKPNILNCYVTQFHPPHIEIQMLKNGKKIPKVEMSDMSFSKDWSFYILAHTEFTPTETDTYACRVKHDSMAEPKTVYWDRDM
chain 5: SIINFEKL
B2: H2-Kb / Ed39 (parent complex)
chain 1: GEQVEQRPPHLSVREGDSAVIICTYTDPNSYYFFWYKQEPGAGLQLLMKVFSSTEINEGQGFTVLLNKKDKQLSLNLTAAHPGDSAVYFCATMSNYNVLYFGSGTKLTVEP
chain 2: GALVYQYPRRTICKSGTSMRMECQAVGFQATSVAWYRQSPQKTFELIALSTVNSAIKYEQNFTQEKFPISHPNLSFSSMTVLNAYLEDRGLYLCGARDGSYEQYFGPGTRLTVL
chain 3: not shown
chain 4: B1 chain 4
chain 5: SIINFEKL

Data on 150 variants can be found in PMC11480844 (2024).
Note: test concentration or dose not given here.

Variants of B1 are the subject of one experiment. The experiment in a line: % of reporter cells activated (NFAT-GFP), raw.
On to chain 5 F5H, for which the ratio to parent worked out at 1.23.
Still for that read-out and setting: with chain 5 F5R the figure was 1.19; with chain 5 F5A, 1.24; with chain 5 S1F, 1.25.
On to chain 5 L8R, for which the ratio to parent came out at 1.24.
Same read-out and setting: with chain 5 N4D the figure was 0.436; with chain 5 I3G, 1.22; with chain 5 I3E, 1.17.
Same read-out and setting: with chain 5 I3V the figure was 1.26.
On to chain 5 I2G, for which the ratio to parent came out at 1.3.
On the same count and under the same terms, with chain 5 E6H the figure was 0.573.
The same measure, in the same setting: the result for chain 5 E6T reads 0.127.
Turning to chain 5 E6F, the ratio to parent stood at 0.0912.
On the same count and under the same terms, with chain 5 E6D the figure was 1.13.
On the same count and under the same terms, the result for chain 5 E6K reads 1.14.
Same read-out and setting: with chain 5 E6S the figure was 0.349.

A further experiment covers variants of B2. The experiment in a line: % of reporter cells activated (NFAT-GFP), raw.
Turning to chain 5 K7S, the ratio to parent was determined as 0.293.
Still for that read-out and setting: the result for chain 5 K7M reads 0.665; that for chain 5 K7C, 0.331; that for chain 5 K7H, 0.0199.
Same read-out and setting: the result for chain 5 K7L reads 0.408; that for chain 5 K7Y, 0.0483.
On the same count and under the same terms, the result for chain 5 K7P reads 0.326; that for chain 5 K7A, 0.112; that for chain 5 K7F, 0.0761.
Take chain 5 K7V: the ratio to parent was 0.115.
On the same count and under the same terms, with chain 5 K7W the figure was 0.355; with chain 5 K7I, 0.0214; with chain 5 K7Q, 0.865.
The same measure, in the same setting: with chain 5 K7R the figure was 0.355; with chain 5 K7D, 0.00558.
On the same count and under the same terms, with chain 5 E6G the figure was 0.00768; with chain 5 E6R, 0.00443; with chain 5 E6I, 0.00482.
With chain 5 E6V, the ratio to parent stood at 0.0176.
The same measure, in the same setting: the result for chain 5 E6T reads 0.034; that for chain 5 E6C, 0.0124; that for chain 5 E6Q, 0.0946.
Still for that read-out and setting: with chain 5 E6S the figure was 0.0298.
With chain 5 E6N, the ratio to parent is 0.00523.
Same read-out and setting: the result for chain 5 E6M reads 0.0331; that for chain 5 E6F, 0.00457.
On the same count and under the same terms, the result for chain 5 E6Y reads 0.0117; that for chain 5 E6H, 0.0355.
On the same count and under the same terms, the result for chain 5 E6L reads 0.0111; that for chain 5 E6D, 0.265; that for chain 5 E6W, 0.00837.
In the case of chain 5 E6A, the ratio to parent is 0.0073.
On to chain 5 E6P, for which the ratio to parent came out at 0.00676.
Turning to chain 5 L8P, the ratio to parent amounted to 0.453.
In the case of chain 5 L8D, the ratio to parent amounted to 0.425.
Same read-out and setting: with chain 5 L8V the figure was 0.591; with chain 5 L8W, 0.468; with chain 5 L8N, 0.884.
Still for that read-out and setting: with chain 5 L8E the figure was 0.361; with chain 5 L8Q, 0.617.
Same read-out and setting: with chain 5 L8R the figure was 0.801.
In the case of chain 5 L8Y, the ratio to parent worked out at 0.83.
The same measure, in the same setting: the result for chain 5 L8F reads 0.64; that for chain 5 L8M, 0.762.
Same read-out and setting: with chain 5 L8A the figure was 0.663.
Same read-out and setting: with chain 5 L8T the figure was 0.703.
With chain 5 L8S, the ratio to parent is 0.462.
Still for that read-out and setting: with chain 5 L8K the figure was 0.485; with chain 5 L8G, 0.676.
Same read-out and setting: the result for chain 5 L8I reads 0.771.
Take chain 5 S1E: the ratio to parent was 0.00392.
Same read-out and setting: with chain 5 S1C the figure was 0.0621; with chain 5 S1M, 0.00499; with chain 5 S1L, 0.00419.
The same measure, in the same setting: with chain 5 S1G the figure was 0.272; with chain 5 S1V, 0.0243; with chain 5 S1Q, 0.00347.
In the case of chain 5 S1D, the ratio to parent was 0.00365.
The same measure, in the same setting: with chain 5 S1I the figure was 0.00338; with chain 5 S1P, 0.00622.
In the case of chain 5 S1K, the ratio to parent was 0.0783.
Same read-out and setting: the result for chain 5 S1W reads 0.0114.
On the same count and under the same terms, the result for chain 5 S1A reads 0.0073; that for chain 5 S1H, 0.0798.
chain 5 S1N: the ratio to parent was determined as 0.00689.
For the variant chain 5 S1T, the ratio to parent worked out at 0.00457.
Still for that read-out and setting: with chain 5 S1F the figure was 0.00514.
Still for that read-out and setting: the result for chain 5 F5S reads 0.829.
Regarding chain 5 F5K, the ratio to parent was determined as 0.374.
On the same count and under the same terms, with chain 5 F5E the figure was 0.259.
On the same count and under the same terms, the result for chain 5 F5Y reads 0.867; that for chain 5 F5P, 0.281.
On the same count and under the same terms, the result for chain 5 F5Q reads 0.712; that for chain 5 F5H, 0.791; that for chain 5 F5I, 0.622.
For chain 5 F5M, the ratio to parent was found to be 1.01.
With chain 5 F5A, the ratio to parent is 0.973.
Same read-out and setting: the result for chain 5 F5N reads 0.484.
On the same count and under the same terms, the result for chain 5 F5L reads 0.765; that for chain 5 F5T, 0.844.
chain 5 F5D: the ratio to parent came out at 0.358.
The same measure, in the same setting: the result for chain 5 F5R reads 0.562; that for chain 5 F5W, 0.738; that for chain 5 F5V, 0.821.
Regarding chain 5 N4K, the ratio to parent worked out at 0.0498.
As to chain 5 N4G, the ratio to parent was 0.114.
Still for that read-out and setting: with chain 5 N4M the figure was 0.00879; with chain 5 N4F, 0.0119.
The same measure, in the same setting: with chain 5 N4L the figure was 0.196.
The same measure, in the same setting: with chain 5 N4D the figure was 1.25; with chain 5 N4T, 0.00203.
As for chain 5 N4C, the ratio to parent was found to be 0.0192.
Same read-out and setting: the result for chain 5 N4P reads 0.174.
Turning to chain 5 N4H, the ratio to parent stood at 0.124.
As for chain 5 N4Y, the ratio to parent was found to be 0.0203.
Still for that read-out and setting: the result for chain 5 N4W reads 0.127; that for chain 5 N4V, 0.00191; that for chain 5 N4A, 0.0243.
Still for that read-out and setting: the result for chain 5 N4R reads 0.22; that for chain 5 N4E, 0.106; that for chain 5 N4S, 0.0741.
On the same count and under the same terms, with chain 5 I2R the figure was 0.593; with chain 5 I2N, 0.18; with chain 5 I2T, 0.781.
For chain 5 I2V, the ratio to parent came to 1.09.
Still for that read-out and setting: the result for chain 5 I2G reads 0.841; that for chain 5 I2K, 0.396.
Same read-out and setting: with chain 5 I2H the figure was 0.244; with chain 5 I2F, 0.683.
Still for that read-out and setting: with chain 5 I2A the figure was 0.954; with chain 5 I2Y, 0.284.
With chain 5 I2S, the ratio to parent was determined as 0.779.
With chain 5 I2M, the ratio to parent was 0.907.
On the same count and under the same terms, the result for chain 5 I2Q reads 0.366.
For the variant chain 5 I2E, the ratio to parent was 0.719.
Same read-out and setting: with chain 5 I2W the figure was 0.453; with chain 5 I2D, 0.612.
On the same count and under the same terms, the result for chain 5 I3H reads 0.0308; that for chain 5 I3R, 0.0638.
Consider chain 5 I3N, for which the ratio to parent turned out to be 0.314.
The same measure, in the same setting: the result for chain 5 I3M reads 0.564; that for chain 5 I3P, 0.293; that for chain 5 I3E, 0.558.
The same measure, in the same setting: the result for chain 5 I3Y reads 0.0404; that for chain 5 I3T, 0.416; that for chain 5 I3S, 0.12.
Same read-out and setting: the result for chain 5 I3A reads 0.56; that for chain 5 I3K, 0.286; that for chain 5 I3G, 0.156.
As to chain 5 I3F, the ratio to parent came to 0.0488.
For chain 5 I3V, the ratio to parent was found to be 0.956.
On the same count and under the same terms, with chain 5 I3D the figure was 0.402; with chain 5 I3L, 0.706.
With chain 5 I3C, the ratio to parent came to 0.431.
